T1: human ADAMTS13 (human, UniProt Q76LX8 75-1427)
T1 sequence (looked up): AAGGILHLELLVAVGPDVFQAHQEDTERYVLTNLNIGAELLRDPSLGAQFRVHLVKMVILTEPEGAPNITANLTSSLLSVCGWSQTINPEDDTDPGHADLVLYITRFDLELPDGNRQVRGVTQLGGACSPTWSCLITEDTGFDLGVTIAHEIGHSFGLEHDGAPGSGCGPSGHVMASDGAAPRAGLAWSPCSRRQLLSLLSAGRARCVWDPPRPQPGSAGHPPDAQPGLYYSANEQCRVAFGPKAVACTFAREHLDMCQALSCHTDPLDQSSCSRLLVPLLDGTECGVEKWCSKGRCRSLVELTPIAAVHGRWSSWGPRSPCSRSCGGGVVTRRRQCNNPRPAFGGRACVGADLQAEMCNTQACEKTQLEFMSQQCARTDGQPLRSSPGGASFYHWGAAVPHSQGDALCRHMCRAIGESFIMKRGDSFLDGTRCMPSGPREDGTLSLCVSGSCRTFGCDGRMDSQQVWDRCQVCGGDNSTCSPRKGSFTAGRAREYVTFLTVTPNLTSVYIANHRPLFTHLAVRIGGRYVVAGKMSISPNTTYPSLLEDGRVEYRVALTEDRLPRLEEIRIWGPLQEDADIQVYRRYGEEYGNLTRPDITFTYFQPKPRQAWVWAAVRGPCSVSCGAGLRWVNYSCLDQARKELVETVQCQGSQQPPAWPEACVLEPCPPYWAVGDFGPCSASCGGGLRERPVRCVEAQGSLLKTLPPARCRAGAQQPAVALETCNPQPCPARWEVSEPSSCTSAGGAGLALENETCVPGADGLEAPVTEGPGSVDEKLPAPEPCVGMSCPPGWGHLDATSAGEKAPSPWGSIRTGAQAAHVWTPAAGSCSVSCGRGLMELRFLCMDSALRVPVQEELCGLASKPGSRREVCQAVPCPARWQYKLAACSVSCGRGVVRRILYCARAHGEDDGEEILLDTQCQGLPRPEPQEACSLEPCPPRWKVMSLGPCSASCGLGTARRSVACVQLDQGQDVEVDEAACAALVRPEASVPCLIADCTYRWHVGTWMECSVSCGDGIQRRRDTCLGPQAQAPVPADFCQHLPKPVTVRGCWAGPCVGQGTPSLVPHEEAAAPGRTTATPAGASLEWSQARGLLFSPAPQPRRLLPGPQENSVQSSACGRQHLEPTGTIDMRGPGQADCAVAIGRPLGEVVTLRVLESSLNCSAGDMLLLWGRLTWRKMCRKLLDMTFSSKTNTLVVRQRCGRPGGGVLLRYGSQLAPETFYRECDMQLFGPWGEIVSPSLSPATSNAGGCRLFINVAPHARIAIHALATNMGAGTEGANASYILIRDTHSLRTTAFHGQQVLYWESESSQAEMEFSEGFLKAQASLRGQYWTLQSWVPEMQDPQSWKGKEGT

B1: scFv 1-420 (scFv, V domains shown)
VH: QVQLVQSGAEVKKPGSSVKVSCKASGGAFTMYTINWVRQAPGRGLEWMGRIIPILGITDYAQKFQGRGTITADKSTSTAYLELSGLTSEDTAVYYCAREFSGGNYFDFWGQGTLVTVSS
VL: ELELTQPPSVSISPGKTAKIFCGGNSIGRKSVHWYQQKPGQAPVLVVYDDSDRPSGIPERFSGSNSGNTATLTISRVEAGDEADYYCQVWDSSSDYVVFGGGTKLTVL
B2: scFv 3-405 (scFv, V domains shown)
VH: QVQLVQSGAEVKRPGSSVKVSCKASGNTFSNYHINWVRQAPGQGLQWMGGIIPILGRTNYAQNFQGRVTITTDESTNTAYMELTSLRSEDTAVYYCAREARDSFDFWGQGTMVTVSS
VL: ELVLTQPPSVSVAPGKTARITCGENNIGSKSVHWYQQKPGQAPVLVIYYDTDRPSGIPARFSGSNSGNTATLTISRVEAGDEADYYCQVWDSSSDQRVFGGGTELTVL
B3: scFv 1-416 (scFv, V domains shown)
VH: QVQLVQSGAEVKKPGSSVRVSCTASGSNFSSHTINWVRQAPGQGLEWMGKVIPVLDISKHAQTFLGRVIITADKSTSTAYLELSSLRSEDTAIYYCAMDSVYGNFDFWGQGTLVTVSS
VL: ELVLTQPPSVSVSPGQTARITCSGDAFPKHYAYWYQQKPGQAPVLVIYKDTERPSGIPERFSGSSSGTTATLTISGVQAEDEADYYCQSTDSSDTWVFGAGTKVTVL
B4: scFv 1-431 (scFv, V domains shown)
VH: QVQLVQSGAEVKKFGSSVKVSCKASGGTFSSYTMSWVRQAPGQGLEWMGSFVPILERANYAQGFQGRVTFTADKSTSTAYMELGSLRSEDTAVYYCARDLGDFGDSWGQGTLVTVSS
VL: ELELTQPPSVSVSPGQTARITCSGDALPKQYAYWYQQKPGQAPVLVIYKDSERPSGIPERFSGSSSGTTVTLTISGVQAEDEADYYCQSADSSGTYVFGGGTKLTVL
B5: scFv 1-428 (scFv, V domains shown)
VH: EVQLVQSGAEVKKPGSSVKVSCKASGSNFSSHTINWVRQAPGHGLEWMGKIIPVLDISKDAETFLGRVVITADKSTSTAYMELSSLRSEDTAIYYCAMDSVYGNFDFWGQGTLVTVSS
VL: ELELTQPPSVSVSPGQTARITCSGDALPKQYAYWYQQKPGQAPVLVIYKDSERPSGIPERFSGSSSGTTVTLTISGVQAEDEADYYCQSADSSGTYEVFGGGTKLTVL

Assays:
human ADAMTS13 [1] = biological target: T1, human ADAMTS13; assay: cell-based or functional assay
[2] = biological target: T2, hemagglutinin ectodomain of influenza virus H1/PR/8/34 (influenza virus H1/PR/8/34, UniProt P03452 18-528); assay: immunoassay or flow cytometry
T2 construct: extracellular domain; also called HA H1/PR/8/34
T2 sequence (P03452 18-528): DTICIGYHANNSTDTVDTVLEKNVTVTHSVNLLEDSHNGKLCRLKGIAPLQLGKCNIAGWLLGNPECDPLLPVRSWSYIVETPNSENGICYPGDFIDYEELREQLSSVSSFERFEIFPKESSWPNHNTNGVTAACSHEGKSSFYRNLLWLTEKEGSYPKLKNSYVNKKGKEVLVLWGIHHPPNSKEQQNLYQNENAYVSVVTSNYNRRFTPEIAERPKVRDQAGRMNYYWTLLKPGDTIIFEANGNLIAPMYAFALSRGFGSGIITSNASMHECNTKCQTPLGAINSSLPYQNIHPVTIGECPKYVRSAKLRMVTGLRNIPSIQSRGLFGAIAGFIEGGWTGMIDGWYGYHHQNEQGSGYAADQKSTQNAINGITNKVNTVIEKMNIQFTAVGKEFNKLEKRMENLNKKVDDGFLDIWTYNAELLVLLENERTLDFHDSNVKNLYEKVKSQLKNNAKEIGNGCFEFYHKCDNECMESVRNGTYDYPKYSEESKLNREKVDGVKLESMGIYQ

human ADAMTS13 [3] = biological target: T1, human ADAMTS13; assay: phage ELISA on ADAMTS13-coated plates (positive: >10-fold absorbance above background)

Binder	% ADAMTS13 activity in presence of scFv inhibitor (no rabbit IgG) (human ADAMTS13 [1])	binding result [2]	binding result (human ADAMTS13 [3])
B1	0%	no binding	
B2		no binding	binds
B3	20%	no binding	
B4	19%	no binding	
B5	7%	no binding	

Source: US20190031771A1 (University of Pennsylvania, published 2019)
